Laboratory results reported in patent US11608490B2, “Composition for enhancing hair growth-inducing ability of adipose stem cells comprising udenafil as active ingredient” (INDUSTRY-ACADEMIC COOPERATION FOUNDATION, YONSEI UNIVERSITY, priority 2018, dated 2023).

B1: IL-4 peptide: cytokine whose expression is increased in udenafil-treated adipose stem cells; called IL-4 peptide, synthetic peptide of IL-4, IL-4 protein (protein, UniProt P05112 25-153, looked up)
Interleukin-4: HKCDITLQEIIKTLNSLTEQKTLCTELTVTDIFAASKNTTEKETFCRAATVLRQFYSHHEKDTRCLGATAQQFHRHKQLIRFLKRLDRNLWGLAGLNSCPVKEANQSTLENFLERLKTIMREKYSKCSS
B2: IL-12B peptide: cytokine whose expression is increased in udenafil-treated adipose stem cells; called IL-12B peptide, synthetic peptide of IL-12B, IL-12B protein (protein, UniProt P29460 23-328, looked up)
Interleukin-12 subunit beta: IWELKKDVYVVELDWYPDAPGEMVVLTCDTPEEDGITWTLDQSSEVLGSGKTLTIQVKEFGDAGQYTCHKGGEVLSHSLLLLHKKEDGIWSTDILKDQKEPKNKTFLRCEAKNYSGRFTCWWLTTISTDLTFSVKSSRGSSDPQGVTCGAATLSAERVRGDNKEYEYSVECQEDSACPAAEESLPIEVMVDAVHKLKYENYTSSFFIRDIIKPDPPKNLQLKPLKNSRQVEVSWEYPDTWSTPHSYFSLTFCVQVQGKSKREKKDRVFTDKTSATVICRKNASISVRAQDRYYSSSWSEWASVPCS

Tests used:
human adipose stem cells [1] = assay: Scratch wound-healing assay; format: cell-based; settings: for migration of the adipose stem cells, scratch wound-healing assay: IL-4 or IL-12B in serum-free medium for 3 days, FIG. 7 (B to E)
Procedure: (§1) Human adipose stem cells were isolated via liposuction of subcutaneous fat, as described in a previous study: Briefly, the fat was washed with phosphate-buffered saline (PBS), 0.075% collagenase was added, and the mixture was incubated for 45 minutes at 37° C. with gentle shaking. After centrifugation, the pellet was filtered through a 100 am nylon mesh. Then, the cells were cultured with an essential medium containing alpha Minimum Essential Medium (α-MEM) (Hyclone, Logan, Utah, USA), 10% fetal bovine serum (FBS) (Gibco, Carlsbad, Calif., USA), and 1% antibiotics (Gibco) for three passages. Then, the medium was changed to contain α-MEM, 10% FBS, and 1% penicillin/streptomycin (Gibco), and the cells were cultured for four passages. The adipose stem cells at passages 5 to 7 were used for all experiments. Characterization of the adipose stem cells was performed using flow cytometry. The adipose stem cells were positive for CD44, CD73, CD90, CD105, human leukocyte antigen (HLA)-I, and podocalyxin-like protein (PODXL), and were negative for hematopoietic markers such as CD34 and CD45. A multipotent differentiation potential was examined, as described in a previous study; as a result, the adipose stem cells could be differentiated into adipocytes, osteocytes, and chondrocytes. The adipose stem cells were maintained at 37° C. in a humidified 5% CO2 incubator.
The adipose stem cells were seeded into 6-well plates and cultured to confluence. A sterile 1 ml pipette tip was used to scratch the cell monolayer. The cultures were then washed with PBS to remove de-plated cells, and the cells were again cultured with udenafil, or IL-4, and IL-12B in a serum-free medium for 3 days. Cell migration into the scratched area (wound closure) was visualized using a ZEISS™ Observer D1 microscope. Multiple images were acquired per well, and the average cell number within the wound was monitored over 3 days.

IL-4 mRNA = assay: qPCR of IL-4 expression level in udenafil-treated adipose stem cells; format: cell-based; settings: adipose stem cells treated with 1 μM udenafil for 3 to 4 days, versus non-udenafil-treated adipose stem cells (Control); FIG. 3
Procedure: (§2) First, adipose stem cells were preconditioned with udenafil to prepare stimulated adipose stem cells. Adipose stem cells were inoculated on a […] and cultured. The following day, 1 μM udenafil was added to the culture medium and additional culture was performed for 3 to 4 days. Subsequently, adherent cultured adipose stem cells were detached with trypsin, and then obtained by centrifugation. The obtained adipose stem cells were prepared by being mixed with 100 μl of PBS.
(§3) Specifically, as performed in Example <1-1>, adipose stem cells were treated with udenafil and cultured. After completion of the culture, the cells were obtained and RNA was extracted from the cells by treatment with TRIZOL™ (Invitrogen, NY, USA). Using the extracted RNA as a template, cDNA was synthesized through RT-PCR using oligodT and HELIXCRIPT™ Thermo Reverse Transcription System (NANOHELIX, WI, USA). The synthesized cDNA and BrightGreen qPCR master mix-ROX (abm, NY, US) were added to 96-well qPCR assay Kit for identifying growth factors [RT^2 First Strand (DNA Synthesis Kit (QIAGEN, MD, USA)], to perform a qPCR reaction. The results obtained by performing the qPCR reaction were analyzed using a program which corresponds to the RT^2 First Strand cDNA Synthesis Kit and is provided by QIAGEN, and IL-4 and IL-12B expression levels in the udenafil-treated adipose stem cells were respectively identified.

human adipose stem cells [2] = assay: Transwell migration assay; format: cell-based; settings: migration 1 day; for migration of the adipose stem cells, transwell migration assay: IL-4 or IL-12B treatment for 3 days, FIG. 7 (B to E)
Procedure: as §1
The adipose stem cells were seeded into 60 mm plates and treated with udenafil IL-4, or IL-12B for 3 days. The adipose stem cells starved for 1 day (1.5×10^4cells/well) were suspended in a serum-free medium and seeded on the upper side of transwell membrane inserts (BD Falcon, CA, USA), which was pre-coated with MATRIGEL™ (1/60 dilution, BD MATRIGEL™ matrix, CA, USA). The normal serum With FBS was added in the lower side thereof as a chemoattractant. […] The inserts were stained with […] solution (Sigma-Aldrich) for 20 minutes, and the cell number was analyzed under a ZEISS™ Observer D1 microscope. Multiple images (15 to 20) were acquired per insert, and the average cell counts were calculated.

human adipose stem cells [3] = assay: Tube formation assay using MATRIGEL; format: cell-based; settings: after 16 hours; FIG. 6(E)
Procedure: as §1, with “chondrocytes. […]” for “chondrocytes.”, “number of tubes was analyzed under” for “adipose stem cells were maintained at 37° C. in”, “ZEISS™ Observer D1 microscope.” for “humidified 5% CO2 incubator.”

human adipose stem cells [4] = assay: Cell growth assay (live cell number, trypan blue); format: cell-based; settings: 7 days; for proliferation of the adipose stem cells (live cell number): IL-4 or IL-12B 100 ng/ml, FIG. 7(A)
Procedure: as §1
For cell growth assay, the adipose stem cells were seeded in 12-well plates, with 5×10^3 cells/well, treated with udenafil (0.1, 0.5, or 1 μM), and incubated for 7 days. The adipose stem cells were also seeded in 12-well plates, with 1×10^4 cells/well, treated with a synthetic peptide of IL-4 or IL-12B (100 ng/ml), and incubated for 7 days. The cells were then trypsinized, stained with trypan blue (Sigma-Aldrich, MO, USA), and counted each day using a hemocytometer.

IL-12B mRNA = assay: qPCR of IL-12B expression level in udenafil-treated adipose stem cells; format: cell-based; settings: adipose stem cells treated with 1 μM udenafil for 3 to 4 days, versus non-udenafil-treated adipose stem cells (Control); FIG. 3
Procedure: as §2, §3

[5] = system: dermal papilla cells (DP cells); assay: Growth of dermal papilla cells after treatment with IL-4 or IL-12B; format: cell-based; settings: FIG. 8
[6] = system: vibrissal hair follicle cells; assay: Vibrissal hair follicle culture, length of hair grown; format: cell-based, mouse; settings: 5 ng/ml or 20 ng/ml, 3 days culture, versus non-treated control; FIG. 5
Procedure: In addition, the vibrissal hair follicle of 5-week-old C57b1/6 mice was dissected to obtain hair follicle cells, and the hair follicle cells were transferred to 48-well plates. Then, treatment with 5 ng/ml or 20 ng/ml of an IL-4 peptide or an IL-12B peptide was performed and culture was performed for 3 days. After completion of the culture, the hair follicle tissue was photographed and a length of hair grown therefrom was measured.

C3H mice = assay: Hair growth effect of IL-4 or IL-12B peptide applied to dorsum of mice; format: in vivo, mouse; settings: 100 ng/ml applied to dorsum once a day for 13 to 14 days, FIG. 4; for maturation of hair follicle tissue: H&E staining
Procedure: Specifically, the dorsal hair of 6-week-old C3H mice was completely removed, and 100 ng/ml of an IL-4 peptide or an IL-12B peptide was applied to the dorsum of the mice once a day. It was identified whether the hair was growing while applying the IL-4 peptide or IL-12B peptide for 13 to 14 days. Then, a photograph was taken and the dorsal skin tissue was obtained.

Row | Molecule | ASC migration, scratch wound-healing assay (human adipose stem cells [1]; udenafil in serum-free medium for 3 days, FIG. 6 (B to D)) | IL-4 mRNA expression level (IL-4 mRNA) | ASC migration, transwell migration assay (human adipose stem cells [2]; udenafil treatment for 3 days, FIG. 6 (B to D)) | number of nascent tubes (tube-forming activity) (human adipose stem cells [3]) | growth of adipose stem cells (live cell number) (human adipose stem cells [4]; udenafil 0.1, 0.5 or 1 μM, FIG. 6(A)) | IL-12B mRNA expression level (IL-12B mRNA) | migration of the adipose stem cells, scratch wound-healing assay (human adipose stem cells [1]) | growth of the DP cells [5] | length of hair grown from the hair follicle cells [6] | hair growth effect (C3H mice) | maturation of hair follicle tissue (C3H mice) | migration of the adipose stem cells, transwell migration assay (human adipose stem cells [2]) | proliferation of the adipose stem cells (live cell number) (human adipose stem cells [4])
1 | CCCOc1ccc(S(=O)(=O)NCCC2CCCN2C)cc1-c1nc(=O)c2c([nH]1)c(CCC)nn2C (centres unmarked) [udenafil] | increases ASC migration in both assays in a dose-dependent manner | about 4 fold | increases ASC migration in both assays in a dose-dependent manner | increases the number of nascent tubes | increases growth of adipose stem cells in a time- and dose-dependent manner | about 6 fold | – | – | – | – | – | – | –
2 | B1 | – | – | – | – | – | – | increase migration of the adipose stem cells in a dose-dependent manner | increased growth of the DP cells | longer than that of the non-treated control | increased hair growth effect | significantly maturated | increase migration of the adipose stem cells in a dose-dependent manner | not
3 | B2 | – | – | – | – | – | – | increase migration of the adipose stem cells in a dose-dependent manner | increased growth of the DP cells | longer than that of the non-treated control | increased hair growth effect | significantly maturated | increase migration of the adipose stem cells in a dose-dependent manner | increases proliferation of the adipose stem cells in a time- and dose-dependent manner
